From paper PMC12084297, “Cytoplasmic connexin43-microtubule interactions promote glioblastoma stem-like cell maintenance and tumorigenicity” (Cell Death & Disease, 2025)
Ends that are not written are not given here. * marks the point of attachment. Biotin = O=C1N[C@H]2[C@H](CS[C@H]2CCCCC(=O)*)N1

What was measured:
β-tubulin = β-tubulin (human (endogenous in VTC-001 and …, UniProt P07437 1-444)); assay: cellular thermal shift assay (CETSA); fresh VTC-037 GSC lysates in non-denaturing buffer treated 1 h with 3-fold dilutions (222.2, 74.0, 24.7, 8.2 and 2.7 nM) of peptide, heat challenge at 57 °C for 20 min, centrifugation, immunoblot of the stable protein normalised to DMSO control; EC50 of target engagement; conditions: one partner purified
β-tubulin (human, sequence (P07437 whole entry): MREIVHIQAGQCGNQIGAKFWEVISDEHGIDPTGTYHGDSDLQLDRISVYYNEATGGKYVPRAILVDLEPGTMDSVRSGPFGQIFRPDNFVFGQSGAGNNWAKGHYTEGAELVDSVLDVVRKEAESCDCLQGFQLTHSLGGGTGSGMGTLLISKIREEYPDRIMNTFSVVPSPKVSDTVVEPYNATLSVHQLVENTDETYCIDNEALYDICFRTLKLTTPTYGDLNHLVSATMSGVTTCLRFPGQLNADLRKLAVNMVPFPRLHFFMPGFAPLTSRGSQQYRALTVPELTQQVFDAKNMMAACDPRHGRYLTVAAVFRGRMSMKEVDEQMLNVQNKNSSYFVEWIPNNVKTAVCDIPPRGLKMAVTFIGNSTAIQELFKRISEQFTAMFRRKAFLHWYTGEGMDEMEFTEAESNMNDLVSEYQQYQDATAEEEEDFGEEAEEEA

α-tubulin = α-tubulin (human (endogenous in VTC-037 GSCs), UniProt P68363 1-451); assay: as above; conditions: one partner purified
α-tubulin, sequence (P68363 whole entry): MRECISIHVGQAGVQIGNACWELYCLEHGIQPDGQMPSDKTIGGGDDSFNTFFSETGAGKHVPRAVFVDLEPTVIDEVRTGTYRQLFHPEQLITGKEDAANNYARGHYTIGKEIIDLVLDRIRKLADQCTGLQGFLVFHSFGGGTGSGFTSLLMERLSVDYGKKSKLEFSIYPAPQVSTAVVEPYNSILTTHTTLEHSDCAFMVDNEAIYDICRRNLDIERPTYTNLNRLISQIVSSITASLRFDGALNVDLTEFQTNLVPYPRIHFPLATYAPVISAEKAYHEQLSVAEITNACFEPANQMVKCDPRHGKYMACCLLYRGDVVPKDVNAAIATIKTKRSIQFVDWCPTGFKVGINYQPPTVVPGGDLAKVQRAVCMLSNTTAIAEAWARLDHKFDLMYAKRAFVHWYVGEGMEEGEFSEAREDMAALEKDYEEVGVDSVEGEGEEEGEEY

EC50 (β-tubulin): > 200 nM | EC50 (α-tubulin): > 200 nM
Binder: Biotin-RQPKIWFPNRRKPWKKGSDVFKRKFVDRKVG [JM2-scrambled peptide]
